B1: MdtB (natural protein)
chain: MQVLPPSSTGGPSRLFIMRPVATTLLMVAILLAGIIGYRALPVSALPEVDYPTIQVVTLYPGASPDVMTSAVTAPLERQFGQMSGLKQMSSQSSGGASVITLQFQLTLPLDVAEQEVQAAINAATNLLPSDLPNPPVYSKVNPADPPIMTLAVTSTAMPMTQVEDMVETRVAQKISQISGVGLVTLSGGQRPAVRVKLNAQAIAALGLTSETVRTAITGANVNSAKGSLDGPSRAVTLSANDQMQSAEEYRQLIIAYQNGAPIRLGDVATVEQGAENSWLGAWANKEQAIVMNVQRQPGANIISTADSIRQMLPQLTESLPKSVKVTVLSDRTTNIRASVDDTQFELMMAIALVVMIIYLFLRNIPATIIPGVAVPLSLIGTFAVMVFLDFSINNLTLMALTIATGFVVDDAIVVIENISRYIEKGEKPLAAALKGAGEIGFTIISLTFSLIAVLIPLLFMGDIVGRLFREFAITLAVAILISAVVSLTLTPMMCARMLSQESLRKQNRFSRASEKMFDRIIAAYGRGLAKVLNHPWLTLSVALSTLLLSVLLWVFIPKGFFPVQDNGIIQGTLQAPQSSSFANMAQRQRQVADVILQDPAVQSLTSFVGVDGTNPSLNSARLQINLKPLDERDDRVQKVIARLQTAVDKVPGVDLFLQPTQDLTIDTQVSRTQYQFTLQATSLDALSTWVPQLMEKLQQLPQLSDVSSDWQDKGLVAYVNVDRDSASRLGISMADVDNALYNAFGQRLISTIYTQANQYRVVLEHNTENTPGLAALDTIRLTSSDGGVVPLSSIAKIEQRFAPLSINHLDQFPVTTISFNVPDNYSLGDAVQAIMDTEKTLNLPVDITTQFQGSTLAFQSALGSTVWLIVAAVVAMYIVLGILYESFIHPITILSTLPTAGVGALLALLIAGSELDVIAIIGIILLIGIVKKNAIMMIDFALAAEREQGMSPREAIYQACLLRFRPILMTTLAALLGALPLMLSTGVGAELRRPLGIGMVGGLIVSQVLTLFTTPVIYLLFDRLALWTKSRFARHEEEA
B2: adenine nucleotide translocase 1 (natural protein)
chain: MSDQALSFLKDFLAGGVAAAISKTAVAPIERVKLLLQVQHASKQISAEKQYKGIIDCVVRIPKEQGFLSFWRGNLANVIRYFPTQALNFAFKDKYKQIFLGGVDRHKQFWRYFAGNLASGGAAGATSLCFVYPLDFARTRLAADVGKGAAQREFTGLGNCITKIFKSDGLRGLYQGFNVSVQGIIIYRAAYFGVYDTAKGMLPDPKNVHIIVSWMIAQTVTAVAGLVSYPFDTVRRRMMMQSGRKGADIMYTGTVDCWRKIAKDEGPKAFFKGAWSNVLRGMGGAFVLVLYDEIKKFV
B3: CyoB (natural protein)
chain: MFGKLSLDAVPFHEPIVMVTIAGIILGGLALVGLITYFGKWTYLWKEWLTSVDHKRLGIMYIIVAIVMLLRGFADAIMMRSQQALASAGEAGFLPPHHYDQIFTAHGVIMIFFVAMPFVIGLMNLVVPLQIGARDVAFPFLNNLSFWFTVVGVILVNVSLGVGEFAQTGWLAYPPLSGIEYSPGVGVDYWIWSLQLSGIGTTLTGINFFVTILKMRAPGMTMFKMPVFTWASLCANVLIIASFPILTVTVALLTLDRYLGTHFFTNDMGGNMMMYINLIWAWGHPEVYILILPVFGVFSEIAATFSRKRLFGYTSLVWATVCITVLSFIVWLHHFFTMGAGANVNAFFGITTMIIAIPTGVKIFNWLFTMYQGRIVFHSAMLWTIGFIVTFSVGGMTGVLLAVPGADFVLHNSLFLIAHFHNVIIGGVVFGCFAGMTYWWPKAFGFKLNETWGKRAFWFWIIGFFVAFMPLYALGFMGMTRRLSQQIDPQFHTMLMIAASGAVLIALGILCLVIQMYVSIRDRDQNRDLTGDPWGGRTLEWATSSPPPFYNFAVVPHVHERDAFWEMKEKGEAYKKPDHYEEIHMPKNSGAGIVIAAFSTIFGFAMIWHIWWLAIVGFAGMIITWIVKSFDEDVDYYVPVAEIEKLENQHFDEITKAGLKNGN
B4: ExbB (natural protein)
chain: MGNNLMQTDLSVWGMYQHADIVVKCVMIGLILASVVTWAIFFSKSVEFFNQKRRLKREQQLLAEARSLNQANDIAADFGSKSLSLHLLNEAQNELELSEGSDDNEGIKERTSFRLERRVAAVGRQMGRGNGYLATIGAISPFVGLFGTVWGIMNSFIGIAQTQTTNLAVVAPGIAEALLATAIGLVAAIPAVVIYNVFARQIGGFKAMLGDVAAQVLLLQSRDLDLEASAAAHPVRVAQKLRAG

How the values were obtained:
Assay in all cases: native MS
[1] = target: Anchor Cell Fusion Failure protein 1
complex IV = target: complex IV
[2] = target: complex III (Bos taurus (endogenous in bovine mitochondria)) (UniProt P00157)
native MS = target: the molecule itself

| Molecule | stoichiometry N (native MS) | further results |
| --- | --- | --- |
| Anchor Cell Fusion Failure protein 1 (natural protein) | – | stoichiometry N [1]: 2 |
| complex IV | – | stoichiometry N (complex IV): 2 |
| complex III (from UniProt P00157;P00129) | – | stoichiometry N [2]: 2 |
| B1 | 2 | – |
| B2 | 2 | – |
| B3 | 2 | – |
| B4 | 5 | – |

Source: paper PMC6522346 (Science (New York, N.Y.), 2018)
